In this experiment the target is Toll-like receptor 2 (TLR2) purified protein (UniProt O60603). Put plainly: BLI. Background: BLI is a label-free optical method that tracks binding on a fibre tip over time.

Drawing on doi:10.1101/2022.01.15.476311, this text covers Kd for one substance.

Sequence of UniProt O60603 (O60603 21-588): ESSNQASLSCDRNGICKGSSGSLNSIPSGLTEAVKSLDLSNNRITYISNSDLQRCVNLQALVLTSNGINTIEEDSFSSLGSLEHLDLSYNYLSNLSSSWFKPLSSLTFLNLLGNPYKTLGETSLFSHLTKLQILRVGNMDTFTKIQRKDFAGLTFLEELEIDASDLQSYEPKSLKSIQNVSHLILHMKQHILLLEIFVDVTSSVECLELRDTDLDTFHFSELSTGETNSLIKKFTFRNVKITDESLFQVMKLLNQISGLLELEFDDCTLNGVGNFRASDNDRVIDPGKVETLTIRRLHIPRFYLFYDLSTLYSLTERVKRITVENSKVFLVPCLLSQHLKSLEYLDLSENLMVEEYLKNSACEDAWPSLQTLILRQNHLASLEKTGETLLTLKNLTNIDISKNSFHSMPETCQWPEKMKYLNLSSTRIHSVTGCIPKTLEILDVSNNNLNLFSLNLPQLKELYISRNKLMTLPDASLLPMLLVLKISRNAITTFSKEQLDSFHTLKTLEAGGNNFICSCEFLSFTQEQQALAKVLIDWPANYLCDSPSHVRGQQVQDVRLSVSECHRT

Consider PAM3CSK4 (peptide), for which the dissociation constant (Kd) (commonly the free concentration of one partner at which half of the binding sites on the other are occupied at equilibrium, for simple one-to-one binding) was determined as 1.67 µM.
